Data on 16 variants can be found in the supplement of paper PMC7125110.

B1: glmS ribozyme (parent)
chain: AUAAAAGCGCCAGAACUACAGAAAUGUAGUUGACGAGGAGGAGGUUUAUCGAAUUUUCGGCGGAUGCCUCCAAA

Common to all, as to conditions: with glucosamine-6-phosphate
Series [1] covers variants of B1. As to the kind of experiment: kcat; higher = faster cleavage; RNA array. In short, it runs like this:
(§1)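 Tiles of sequenced MiSeq chips were imaged over ~14 h at 37 °C. On them, barcoded ribozyme variants had been transcribed in situ by E. coli RNA polymerase and were tracked via a hybridised Cy3 probe while glucosamine-6-phosphate (40 μM to 10 mM) in HEPES/KCl/Mg(OAc)2 buffer flowed in. Per-tile medians, normalised to baseline and to non-cleaving reference variants, were fit to one- or two-exponential decays for kobs, and weighted Michaelis–Menten fits gave kcat and KM.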

The variants in series [2] derive from B1. The series is described as follows: self-cleavage kobs at 40 uM GlcN6P; higher = faster cleavage; RNA array. The gist of the method: as §1
The variants in series [3] derive from B1. As to the kind of experiment: self-cleavage kobs at 160 uM GlcN6P; higher = faster cleavage; RNA array. The gist of the method: as §1
The variants in series [4] derive from B1. The series is described as follows: self-cleavage kobs at 2500 uM GlcN6P; higher = faster cleavage; RNA array. The gist of the method: as §1
The variants in series [5] derive from B1. As to the kind of experiment: self-cleavage kobs at 10000 uM GlcN6P; higher = faster cleavage; RNA array. In short, it runs like this:
as §1

Variants of B1 are the subject of series [6]. The series is described as follows: KM; higher = weaker cofactor use; RNA array. In short, it runs like this: as §1
In series [7] the parent is B1. The series is described as follows: self-cleavage kobs at 640 uM GlcN6P; higher = faster cleavage; RNA array. In short, it runs like this:
as §1

± gives the standard error. For some assays here: Variants at the floor of the assay were thinned out. A value given as a limit tells only on which side of the number the result lay.

With C11G C61U, the kcat in series [1] is less than 1e-05 s⁻¹. Moreover, the “self-cleavage kobs at 40 uM GlcN6P” value in series [2] was less than 1e-05 s⁻¹. Further, the “self-cleavage kobs at 160 uM GlcN6P” value in series [3] is less than 1e-05 s⁻¹. Further, the “self-cleavage kobs at 2500 uM GlcN6P” value in series [4] is less than 1e-05 s⁻¹. For the same variant, the “self-cleavage kobs at 10000 uM GlcN6P” value in series [5] is less than 1e-05 s⁻¹.

G29A G59C C70G: the turnover number (kcat) in series [1] is less than 1e-05 s⁻¹.

Take A52U G66U: the kcat in series [1] came to 4.61e-05 ± 3.4e-06 s⁻¹. In addition, the “self-cleavage kobs at 40 uM GlcN6P” value in series [2] was less than 1e-05 s⁻¹. For the same variant, the “self-cleavage kobs at 2500 uM GlcN6P” value in series [4] turned out to be 3.74e-05 ± 1.8e-05 s⁻¹. The “self-cleavage kobs at 10000 uM GlcN6P” value in series [5] was found to be 4.26e-05 ± 1.2e-05 s⁻¹.

With C70U C71U, in series [1], the turnover number (kcat) was 0.00193 ± 0.00073 s⁻¹. Besides, the KM in series [6] worked out at 4150 ± 1900 µM. Besides, the “self-cleavage kobs at 40 uM GlcN6P” value in series [2] came to 3.19e-05 ± 5.6e-06 s⁻¹. Moreover, in series [3], the “self-cleavage kobs at 160 uM GlcN6P” value is 8.1e-05 ± 8.1e-06 s⁻¹. The “self-cleavage kobs at 640 uM GlcN6P” value in series [7] was 0.000229 ± 1.8e-05 s⁻¹. Further, the “self-cleavage kobs at 2500 uM GlcN6P” value in series [4] worked out at 0.000753 ± 0.00013 s⁻¹. The “self-cleavage kobs at 10000 uM GlcN6P” value in series [5] was determined as 0.00146 ± 0.00021 s⁻¹.

As to A39C U45G, the kcat in series [1] is 0.00234 ± 0.00083 s⁻¹. Besides, the Michaelis-Menten constant (KM) in series [6] came out at 2340 ± 1100 µM. In series [2], the “self-cleavage kobs at 40 uM GlcN6P” value turned out to be 6.34e-05 ± 1.1e-05 s⁻¹. Also, the “self-cleavage kobs at 160 uM GlcN6P” value in series [3] worked out at 0.000127 ± 1.4e-05 s⁻¹. Also, in series [7], the “self-cleavage kobs at 640 uM GlcN6P” value was determined as 0.000759 ± 0.0001 s⁻¹. Also, in series [4], the “self-cleavage kobs at 2500 uM GlcN6P” value worked out at 0.00114 ± 0.00018 s⁻¹. The “self-cleavage kobs at 10000 uM GlcN6P” value in series [5] was found to be 0.00189 ± 0.00029 s⁻¹.

A39U U69A: in series [1], the turnover number (kcat) was found to be 0.000214 ± 3.6e-05 s⁻¹. Also, in series [6], the Michaelis-Menten constant (KM) is 2430 ± 770 µM. Moreover, the “self-cleavage kobs at 640 uM GlcN6P” value in series [7] is 5.02e-05 ± 1.2e-05 s⁻¹. Also, in series [4], the “self-cleavage kobs at 2500 uM GlcN6P” value was 0.000105 ± 1.3e-05 s⁻¹. Moreover, in series [5], the “self-cleavage kobs at 10000 uM GlcN6P” value was 0.000197 ± 5.6e-05 s⁻¹.

G41U U56G: the kcat in series [1] was 0.000847 ± 0.00013 s⁻¹. For the same variant, the Michaelis constant (KM) in series [6] was found to be 2280 ± 590 µM. Besides, the “self-cleavage kobs at 40 uM GlcN6P” value in series [2] came out at 2.66e-05 ± 1.2e-05 s⁻¹. Besides, the “self-cleavage kobs at 160 uM GlcN6P” value in series [3] was 4.73e-05 ± 1.1e-05 s⁻¹. Also, in series [7], the “self-cleavage kobs at 640 uM GlcN6P” value was found to be 0.000185 ± 3.5e-05 s⁻¹. Further, the “self-cleavage kobs at 2500 uM GlcN6P” value in series [4] was 0.000491 ± 5.8e-05 s⁻¹. In series [5], the “self-cleavage kobs at 10000 uM GlcN6P” value came out at 0.00064 ± 9.6e-05 s⁻¹.

With C67A C71A, the catalytic constant (kcat) in series [1] was determined as 0.000401 ± 8.3e-05 s⁻¹. Besides, in series [2], the “self-cleavage kobs at 40 uM GlcN6P” value amounted to 4.21e-05 ± 1.2e-05 s⁻¹. Further, the “self-cleavage kobs at 640 uM GlcN6P” value in series [7] came to 0.00013 ± 4.6e-05 s⁻¹. Further, in series [4], the “self-cleavage kobs at 2500 uM GlcN6P” value is 0.000277 ± 4.8e-05 s⁻¹. For the same variant, the “self-cleavage kobs at 10000 uM GlcN6P” value in series [5] is 0.000361 ± 4.3e-05 s⁻¹.

U47G C70G: in series [1], the kcat was found to be 0.000127 ± 1.9e-05 s⁻¹. The “self-cleavage kobs at 40 uM GlcN6P” value in series [2] worked out at 5.74e-05 ± 9e-06 s⁻¹. In addition, the “self-cleavage kobs at 160 uM GlcN6P” value in series [3] was 0.000147 ± 2.1e-05 s⁻¹. Also, the “self-cleavage kobs at 640 uM GlcN6P” value in series [7] turned out to be 0.000101 ± 1.2e-05 s⁻¹. In addition, in series [4], the “self-cleavage kobs at 2500 uM GlcN6P” value worked out at 0.000138 ± 1.5e-05 s⁻¹.

Consider C11A C61G, for which the catalytic constant (kcat) in series [1] was 1.14e-05 ± 3.7e-06 s⁻¹. Besides, the “self-cleavage kobs at 40 uM GlcN6P” value in series [2] was less than 1e-05 s⁻¹.

In the case of C50U U69G, the kcat in series [1] amounted to 2.82e-05 ± 7.6e-06 s⁻¹. The “self-cleavage kobs at 160 uM GlcN6P” value in series [3] is 3.94e-05 ± 1.2e-05 s⁻¹. Further, the “self-cleavage kobs at 2500 uM GlcN6P” value in series [4] was determined as 3.39e-05 ± 1.4e-05 s⁻¹.

With C11G A48G G59C, in series [1], the catalytic constant (kcat) amounted to 0.000345 ± 1.4e-05 s⁻¹. In addition, the KM in series [6] amounted to 1870 ± 150 µM. Moreover, in series [7], the “self-cleavage kobs at 640 uM GlcN6P” value worked out at 8.84e-05 ± 2.1e-05 s⁻¹. Moreover, the “self-cleavage kobs at 2500 uM GlcN6P” value in series [4] stood at 0.0002 ± 3.7e-05 s⁻¹. For the same variant, the “self-cleavage kobs at 10000 uM GlcN6P” value in series [5] came to 0.000286 ± 7.5e-05 s⁻¹.

Take G41C U54A: the kcat in series [1] came to 8.93e-05 ± 2e-05 s⁻¹. Also, the “self-cleavage kobs at 640 uM GlcN6P” value in series [7] amounted to 7.27e-05 ± 1.6e-05 s⁻¹. Also, in series [4], the “self-cleavage kobs at 2500 uM GlcN6P” value was determined as 7.27e-05 ± 1.5e-05 s⁻¹. In addition, in series [5], the “self-cleavage kobs at 10000 uM GlcN6P” value came to 8.37e-05 ± 2.2e-05 s⁻¹.

Regarding G51A, in series [1], the kcat amounted to 1.01e-05 ± 2.8e-07 s⁻¹. Moreover, the Michaelis-Menten constant (KM) in series [6] is 965 ± 160 µM.

On to C11U U54C, for which the kcat in series [1] was 0.00157 ± 0.00021 s⁻¹. The Michaelis-Menten constant (KM) in series [6] worked out at 990 ± 210 µM. In addition, the “self-cleavage kobs at 40 uM GlcN6P” value in series [2] was determined as 6.42e-05 ± 1.2e-05 s⁻¹. Also, the “self-cleavage kobs at 160 uM GlcN6P” value in series [3] came out at 0.000204 ± 9.2e-05 s⁻¹. Further, the “self-cleavage kobs at 640 uM GlcN6P” value in series [7] worked out at 0.000616 ± 0.00017 s⁻¹. The “self-cleavage kobs at 2500 uM GlcN6P” value in series [4] came out at 0.00092 ± 0.00024 s⁻¹. In series [5], the “self-cleavage kobs at 10000 uM GlcN6P” value worked out at 0.00167 ± 0.00033 s⁻¹.

Take G44A A53G: the catalytic constant (kcat) in series [1] amounted to 0.000575 ± 4.5e-05 s⁻¹. The Michaelis-Menten constant (KM) in series [6] was found to be 2460 ± 440 µM. Besides, the “self-cleavage kobs at 640 uM GlcN6P” value in series [7] stood at 0.000116 ± 2.3e-05 s⁻¹. Besides, the “self-cleavage kobs at 2500 uM GlcN6P” value in series [4] was determined as 0.000319 ± 6.7e-05 s⁻¹. The “self-cleavage kobs at 10000 uM GlcN6P” value in series [5] worked out at 0.000456 ± 4.8e-05 s⁻¹.

Usually kcat stands for the maximal rate divided by the concentration of active sites. A word on the KM: it is the concentration of substrate that gives half-maximal velocity.
